Columns and labels:
[1] = target: human AXL (full length) (human) (UniProt P30530); assay: flow cytometry, A431 cells, no Gas6
[2] = target: human AXL (full length) (human) (UniProt P30530); assay: flow cytometry, A431 cells pre-incubated with 10 µg/mL Gas6 (competitor); value less accurate due to low binding
[3] = target: human AXL (full length) (human) (UniProt P30530); assay: flow cytometry, A431 cells pre-incubated with 10 µg/mL Gas6 (competitor)

- EC50 [1]: 0.09 µg/mL
- EC50 [2]: 1.9 µg/mL
- fold change of EC50 after Gas6 pre-incubation against no Gas6 [3]: 21 fold
- maximal binding in presence of Gas6 (% of binding in absence of Gas6) [3]: 41%
- maximal binding in presence of Gas6 (% of binding without Gas6) [3]: 19%
B1: IgG1-YW327.6S2 (antibody, from another filing, V domains shown)
VH: EVQLVESGGGLVQPGGSLRLSCAASGFSLSGSWIHWVRQAPGKGLEWVGWINPYRGYAYYADSVKGRFTISADTSKNTAYLQMNSLRAEDTAVYYCAREYSGWGGSSVGYAMDYWGQGTLVTVSS
VL: DIQMTQSPSSLSASVGDRVTITCRASQDVSTAVAWYQQKPGKAPKLLIYSASFLYSGVPSRFSGSGSGTDFTLTISSLQPEDFATYYCQQSYTTPPTFGQGTKVEIK

Source: patent publication US20180326084A1
